Results published in article PMC3312907, “Monoclonal Antibodies to Meningococcal Factor H Binding Protein with Overlapping Epitopes and Discordant Functional Activity” (PLoS ONE, 2012).

What was measured:
[1] = molecular target: recombinant factor H binding protein (fHbp) ID 1 (Neisseria meningitidis (strain MC58)) (UniProt Q9JXV4); assay: ELISA; competitive inhibition: wells coated with 2 µg/ml fHbp ID 1; dilutions of the first mAb together with 1 µg/ml of the second mAb, 37°C, 2 h; detection with subclass-specific (IgG3 or IgG2a) secondary antibody
[2] = molecular target: murine anti-fHbp mAb JAR 1 (IgG3); assay: ELISA; conditions: mAb at 10 µg/ml (highest point of titration); wells coated with 2 µg/ml of wild-type or mutant fHbp; parent: est. 2.4; read off a plot
[3] = molecular target: murine anti-fHbp mAb JAR 5 (IgG2b); assay: ELISA; conditions: mAb at 10 µg/ml (highest point of titration); wells coated with 2 µg/ml of wild-type or mutant fHbp; parent: est. 3.7; read off a plot
[4] = molecular target: murine anti-fHbp mAb502 (IgG2a); assay: ELISA; conditions: wells coated with 2 µg/ml of wild-type or mutant fHbp, read off a plot
[5] = molecular target: T1, fHbp ID 1 on live bacteria of N. meningitidis group B strain H44/76 (Neisseria meningitidis (endogenous in …, UniProt Q9JXV4)); assay: flow cytometry on cells; as a6, for the anti-fHbp mAb added at 2 or 50 µg/ml for 30 min at room temperature to live bacteria; read-out is bound fH; conditions: one partner purified
T1 construct: source: endogenous, live bacteria of group B strain H44/76

[6] = molecular target: T2, recombinant factor H binding protein (fHbp) ID 1 (Neisseria meningitidis (strain MC58), UniProt Q9JXV4); assay: ELISA; wells coated with 2 µg/ml recombinant fHbp in PBS overnight at 4°C; dilutions of mAb overnight at 4°C; bound mAb detected with anti-mouse or anti-human IgG (Fc specific)-alkaline phosphatase (legend of Figure 5: anti-human kappa light chain); conditions: both partners purified
T2 construct: also called wild-type (WT) fHbp ID 1; rfHbp; source: E. coli (pET21b), purified (Ni-NTA agarose)

[7] = mAb at 10 µg/ml (highest point of titration), parent: est. 3.6

“murine anti-fHbp mAb JAR 1 (IgG3) (antibody)” was tested, and the percent inhibition of mAb502 binding to fHbp [1] was over 90%.

For “recombinant factor H binding protein (fHbp) ID 1 (from UniProt Q9JXV4) D142A”, the response [2] was 2.3 OD 405nm, the response [3] was 3.6 OD 405nm and the response [4, 7] was 3.5 OD 405nm. It also gave a response ([4]; mAb at about 0.08 µg/ml (point read from the log x axis, est.), parent: est. 3.7) of 1.4 OD 405nm.

“recombinant factor H binding protein (fHbp) ID 1 (from UniProt Q9JXV4) K143A” gave a response [2] of 1.3 OD 405nm, a response [3] of 3.8 OD 405nm and a response [4, 7] of 3.6 OD 405nm.

Work on “recombinant factor H binding protein (fHbp) ID 1 (from UniProt Q9JXV4) R204A” yielded a response [2] of 0.15 OD 405nm, a response [3] of 3.4 OD 405nm and a response [4, 7] of 0.3 OD 405nm.

Work on “recombinant factor H binding protein (fHbp) ID 1 (from UniProt Q9JXV4) R204H” yielded a response [2] of 2.2 OD 405nm, a response [3] of 3.6 OD 405nm and a response [4, 7] of 0.3 OD 405nm.

B1: chimeric human IgG1 mouse anti-fHbp JAR 1 mAb (antibody, V domains shown)
VH: QVQLQQPGTELVMPGASVKLSCKASGYTFTNYWMHWVKQRPGQGLEWIGEIDPSDNYTKYNQKFKGKATLTVHTSSTTAYIQLSSLTSEDSAVYYCARGEVTTYLDYWGQGTTLIVSS
VL: DILMTQSPSSLTVSAGEKVTMSCKSSQSLLASDNQNNFLAWHQQKPGQSPKMLIIWASTRVSGVPDRFIGSGSGTDFTLTINSVQAEDLAVYYCQQSYSAPLTFGAGTKLELQ
notes: also called chimeric JAR 1; chimeric human IgG1 JAR 1; source: transfected CHO cells, serum-free medium, purified from supernatant (HiTrap protein G)
B1: binds [5]; binds [6].

B2: chimeric human IgG1 mouse anti-fHbp mAb502 (antibody, V domains shown)
VH: EVQLQESGPGLAKPSQTLSLTCSVTGYSITSDFWNWIRKFPGNKLEYMGYISYSGSTDYNPSLKSRISITRDTSKNQYYLQLNSVTAEDTATYYCARYFGSSYAMDHWGQGTSVTVSS
VL: DIQMTQSPASLSASVGETVTITCRASGNIHNYLAWYQQKQGKSPQLLVYTAKTLAEGVPSRFSGSGSGTQFSLKINSLQPEDFGSYYCQHFWSTPWTFGGGTKLEIK
notes: also called chimeric mAb502; chimeric human IgG1 mAb502; source: transfected CHO cells, serum-free medium, purified from supernatant (HiTrap protein G)
B2: binds [5]; binds [6].
